Target: T1, MutS (MutSt) (UniProt Q56215 Q56215:1-811)
T1 sequence: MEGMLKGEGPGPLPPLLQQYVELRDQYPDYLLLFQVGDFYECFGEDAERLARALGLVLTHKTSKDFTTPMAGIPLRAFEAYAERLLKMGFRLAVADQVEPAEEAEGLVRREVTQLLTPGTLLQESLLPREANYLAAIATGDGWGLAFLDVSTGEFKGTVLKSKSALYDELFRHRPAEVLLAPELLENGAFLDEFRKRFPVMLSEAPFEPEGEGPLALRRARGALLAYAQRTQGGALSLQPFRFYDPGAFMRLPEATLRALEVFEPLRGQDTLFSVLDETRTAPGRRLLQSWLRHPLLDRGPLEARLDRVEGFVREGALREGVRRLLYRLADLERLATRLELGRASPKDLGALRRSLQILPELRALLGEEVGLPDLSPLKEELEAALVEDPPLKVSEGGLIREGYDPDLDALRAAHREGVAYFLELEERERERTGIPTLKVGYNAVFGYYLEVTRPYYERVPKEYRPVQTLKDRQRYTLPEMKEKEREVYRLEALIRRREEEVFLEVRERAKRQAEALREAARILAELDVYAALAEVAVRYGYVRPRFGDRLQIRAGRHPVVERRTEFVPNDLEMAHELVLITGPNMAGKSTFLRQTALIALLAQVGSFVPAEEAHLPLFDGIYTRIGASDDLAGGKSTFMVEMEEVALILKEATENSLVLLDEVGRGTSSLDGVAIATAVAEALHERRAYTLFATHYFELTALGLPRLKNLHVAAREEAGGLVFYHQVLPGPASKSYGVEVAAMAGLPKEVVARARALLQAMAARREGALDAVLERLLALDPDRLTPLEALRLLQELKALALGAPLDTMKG
Test: EMSA; 10 mM Tris-HCl pH 8.8, 5 mM MgCl2, 0.1% Triton X-100, 37 C; preferred over wt; tenfold unlabeled del20 competes, proteinase K removes shift
Conditions: tags: Epicenter Technologies, Madison, Wis; label: 5' fluorescein on anti-sense strand; single unpaired base (deletion at position 20 of anti-sense)
Description: In a typical reaction 80 pmols of unlabeled sense strand were mixed with 40 pmols of Cy5 labeled anti-sense strand and 40 pmols of fluorescein labeled mutant strand (del20 or C>A) in 1× Muts buffer ( 10 mM Tris-HCl pH 8.8, 5 mM MgCl₂, 0.1% TritonX-100). The mixture was annealed in a thermocycler after being first denatured at 95° C. for 5 minutes. The mixture was then cooled at 0.2° C./sec until temperature reaches 25° C. The duplex DNA thus created is illustrated in FIG. 5.
2 or 6 μg of MutSₜ protein (Epicenter Technologies, Madison, Wis.) was added to the annealed oligonucleotides. The mixture was then incubated at 37° C. for 30 minutes.

B1: GFPuv 351-390 del20 heteroduplex (dsDNA)
DNA 1: GTTAATGGGCACAAATTTTCTGTCAGTGGAGAGGGTGAAG
DNA 2: CTTCACCCTCTCCACTGACGAAAATTTGTGCCCATTAAC
binding result: binds
